Legend:
[1] = target: GST mutant encoding FPheK at position-52 (Schistosoma japonicum (printed only as SjGST)); test: cross-linking
[2] = target: GST mutant encoding FSY at position-52 (Schistosoma japonicum (printed only as SjGST)); test: cross-linking

Substance | stoichiometry N [1] | stoichiometry N [2]
GST mutant encoding FPheK at position-52 (enzyme) | 2 | 
GST mutant encoding FSY at position-52 (enzyme) |  | 2

Source: publication PMC9117480
